Experimental data published in patent US20150224182A1 (UNIVERSITY OF VIRGINIA PATENT FOUNDATION, published 2015).
Non-standard residues stand in square brackets, D forms with d. No end group written: not given here. pT = C[C@@H](OP(=O)(O)O)[C@H](N)C(=O)O; pS = N[C@@H](COP(=O)(O)O)C(=O)O

B1: GRK2 phosphopeptide KPRsPVVEL (peptide)
peptide: KPR[pS]PVVEL
notes: also called Beta-Adrenergic receptor kinase 1
B2: β-Synemin phosphopeptide RTFpSPTYGL (peptide)
peptide: RTF[pS]PTYGL
notes: also called SYNM; pS429-β-Synemin426-434
B3: pS33/S37-βcat30 (doubly phosphorylated β-catenin 30-39) (peptide)
peptide: YLD[pS]GIH[pS]GA
notes: also called pS33/pS37-βcat30; pS33/37-βcat30
B4: pS33-βcat30 (YLD(pS)GIHSGA, β-catenin 30-39 with phosphoserine 33) (peptide)
peptide: YLD[pS]GIHSGA
notes: also called pS33-βcatenin30-39; YLDsGIHSGA

target: T1, HLA-B*0702 (human); test: HLA-B7 eluate MS; ALL1; 1 means <1 copy/cell
T1 construct: also called HLA-B7
Excerpt: (§1) The mixture was subjected to centrifugation and the resulting supernatant was passed over protein A sepharose pre-loaded with the HLA-A2-specific antibody BB7.2 or HLA-B7-specific antibody ME1. Peptides were eluted from the purified class I MHC molecules with 10% acetic acid.

Question: Does KPA[pS]PARRL [MAP1A phosphopeptide KPAsPARRL] bind?
Answer: Result: binds

Question: Does RPN[pS]PSPTAL [TLK1 phosphopeptide RPNsPSPTAL] bind?
Answer: Result: binds

Question: Does KPP[pS]PEHQSL [MORC2 phosphopeptide KPPsPEHQSL] bind?
Answer: Result: binds

Question: Does SPR[pS]PGKPM [phosphopeptide SPRsPGKPM (no gene name in Table 7; no database hit)] bind?
Answer: Result: binds

Question: Does RPV[pS]PGKDI [HIVEP2 phosphopeptide RPVsPGKDI] bind?
Answer: Result: binds

Question: Does TPI[pS]PGRASGM [RUNX1 phosphopeptide TPIsPGRASGM] bind?
Answer: Result: binds

Question: Does RSE[pS]KDRKL [IP6K1 phosphopeptide RSEsKDRKL] bind?
Answer: Result: binds

Question: Does RPPPPPD[pT]PP [KLF2 phosphopeptide RPPPPPDtPP] bind?
Answer: Result: binds

Question: Does RSG[pS]LERKV (also called C20orf117) [KIAA0889 phosphopeptide RSGsLERKV] bind?
Answer: Result: binds

Question: Does RSL[pS]PGGAA [RBM15 phosphopeptide RSLsPGGAA] bind?
Answer: Result: binds

Question: Does SPK[pS]PGLKA [RCSD1 phosphopeptide SPKsPGLKA] bind?
Answer: Result: binds

Question: Does TPAQPQRR[pS]L [TPX2 phosphopeptide TPAQPQRRsL] bind?
Answer: Result: binds

Question: Does RP[pS]SPALYF [TSC22D4 phosphopeptide RPsSPALYF] bind?
Answer: Result: binds

Question: Does RPW[pS]PAVSA [SKI phosphopeptide RPWsPAVSA] bind?
Answer: Result: binds

Question: Does SPA[pS]PKISL [ATXN2L phosphopeptide SPAsPKISL] bind?
Answer: Result: binds

target: T1, HLA-B*0702; test: HLA-B7 eluate MS; AML1; 1 means <1 copy/cell
Excerpt: as §1

Question: Does LPA[pS]PRARL [MAP7D1 phosphopeptide LPAsPRARL] bind?
Answer: Result: binds

Question: Does VPR[pS]PKHAHSSSL (also called Supervillin) [SVIL phosphopeptide VPRsPKHAHSSSL] bind?
Answer: Result: binds

Question: Does SPSTSRSGG[pS]SRL [C1orf63 phosphopeptide SPSTSRSGGsSRL] bind?
Answer: Result: binds

Question: Does RPR[pS]PGSNSKV [GTF2IRD1 phosphopeptide RPRsPGSNSKV] bind?
Answer: Result: binds

Question: Does SPEKAGRR[pS]SL [CCDC88B phosphopeptide SPEKAGRRsSL] bind?
Answer: Result: binds

Question: Does YQR[pS]FDEVEGV [GIGYF2 phosphopeptide YQRsFDEVEGV] bind?
Answer: Result: binds

Question: Does RPR[pS]LEVTI (also called Pyrin) [MEFV phosphopeptide RPRsLEVTI] bind?
Answer: Result: binds

Question: Does SPGLARKR[pS]L [ZFP106 phosphopeptide SPGLARKRsL] bind?
Answer: Result: binds

Question: Does RPKLS[pS]PAL [EP300 phosphopeptide RPKLSsPAL] bind?
Answer: Result: binds

Question: Does EPKRR[pS]ARL [HMGN1 phosphopeptide EPKRRsARL] bind?
Answer: Result: binds

Question: Does RPR[pS]PAARL [ZNF219 phosphopeptide RPRsPAARL] bind?
Answer: Result: binds

Question: Does KPPYRSH[pS]L [CCDC45 phosphopeptide KPPYRSHsL] bind?
Answer: Result: binds

Question: Does RRS[pS]LDAEIDSL [LPP phosphopeptide RRSsLDAEIDSL] bind?
Answer: Result: binds

target: T1, HLA-B*0702; test: HLA-B7 eluate MS; ALL1; 2 means 1-5 copies/cell
Excerpt: as §1

Question: Does RPP[pS]PGPVL [SCAP phosphopeptide RPPsPGPVL] bind?
Answer: Result: binds

Question: Does RPD[pS]RLGKTEL [SETD2 phosphopeptide RPDsRLGKTEL] bind?
Answer: Result: binds

Question: Does RPA[pS]PAAKL [KIAA1310 phosphopeptide RPAsPAAKL] bind?
Answer: Result: binds

Question: Does RPAK[pS]MDSL [ARHGAP30 phosphopeptide RPAKsMDSL] bind?
Answer: Result: binds

Question: Does RSL[pS]PLLF [VPS13D phosphopeptide RSLsPLLF] bind?
Answer: Result: binds

Question: Does RPY[pS]PPFFSL [FAM53C phosphopeptide RPYsPPFFSL] bind?
Answer: Result: binds

Question: Does RPKPSS[pS]PV [PCBP2 phosphopeptide RPKPSSsPV] bind?
Answer: Result: binds

Question: Does B1 bind?
Answer: Result: binds

Question: Does KPY[pS]PLASL [NFATC2 phosphopeptide KPYsPLASL] bind?
Answer: Result: binds

target: T1, HLA-B*0702; test: HLA-B7 eluate MS; ALL1; 4 means >25 copies/cell
Excerpt: as §1

Question: Does RPA[pS]AGAML [MEF2D phosphopeptide RPAsAGAML] bind?
Answer: Result: binds

Question: Does KPPH[pS]PLVL [MYC phosphopeptide KPPHsPLVL] bind?
Answer: Result: binds

Question: Does RPQRA[pT]SNVF [MYL9 phosphopeptide RPQRAtSNVF] bind?
Answer: Result: binds

Question: Does FSI[pS]PVRL [SON phosphopeptide FSIsPVRL] bind?
Answer: Result: binds

Question: Does RAP[pS]PSSRM [SRRM2 phosphopeptide RAPsPSSRM] bind?
Answer: Result: binds

Question: Does RPV[pT]PVSDL [KLF10 phosphopeptide RPVtPVSDL] bind?
Answer: Result: binds

target: T1, HLA-B*0702; test: HLA-B7 eluate MS; AML1; 2 means 1-5 copies/cell
Excerpt: as §1

Question: Does RPSRS[pS]PGL [SYNPO phosphopeptide RPSRSsPGL] bind?
Answer: Result: binds

Question: Does RPRPH[pS]APSL [MIIP phosphopeptide RPRPHsAPSL] bind?
Answer: Result: binds

Question: Does RPR[pS]PSPIS [GRM5 phosphopeptide RPRsPSPIS] bind?
Answer: Result: binds

Question: Does RPR[pS]AVLL [AKAP13 phosphopeptide RPRsAVLL] bind?
Answer: Result: binds

Question: Does KPA[pS]PKFIVTL [ZC3H14 phosphopeptide KPAsPKFIVTL] bind?
Answer: Result: binds

Question: Does SPR[pS]PSTTYL [CHAF1A phosphopeptide SPRsPSTTYL] bind?
Answer: Result: binds

Question: Does RPRAN[pS]GGVDL [RREB1 phosphopeptide RPRANsGGVDL] bind?
Answer: Result: binds

Question: Does YQR[pS]FDEVEGVF [GIGYF2 phosphopeptide YQRsFDEVEGVF] bind?
Answer: Result: binds

Question: Does RPR[pS]PTGP[pS]NSF (also called Splicing factor 45) [RBM17 phosphopeptide RPRsPTGPsNSF] bind?
Answer: Result: binds

Question: Does FRR[pS]PTKSSL [RBM14 phosphopeptide FRRsPTKSSL] bind?
Answer: Result: binds

Question: Does SPS[pS]PSVRRQL [ANKRD17 phosphopeptide SPSsPSVRRQL] bind?
Answer: Result: binds

Question: Does RPQRAT[pS]NVF [MYL9 phosphopeptide RPQRATsNVF] bind?
Answer: Result: binds

target: T1, HLA-B*0702; test: HLA-B7 eluate MS; AML1; 4 means >25 copies/cell
Excerpt: as §1

Question: Does RRK[pS]QVAEL [MKI67IP phosphopeptide RRKsQVAEL] bind?
Answer: Result: binds

Question: Does FRR[pS]PTKSSLDY [RBM14 phosphopeptide FRRsPTKSSLDY] bind?
Answer: Result: binds

Question: Does RPR[pS]PTGP (also called Splicing factor 45) [RBM17 phosphopeptide RPRsPTGP] bind?
Answer: Result: binds

Question: Does SPRR[pS]RSISL [SFRS7 phosphopeptide SPRRsRSISL] bind?
Answer: Result: binds

target: T1, HLA-B*0702; test: HLA-B7 eluate MS; ALL1; 3 means 6-25 copies/cell
Excerpt: as §1

Question: Does RPP[pS]SEFLDL [RERE phosphopeptide RPPsSEFLDL] bind?
Answer: Result: binds

target: T2, HLA-A*0201 (human); test: MS of HLA-A*0201 (BB7.2) eluate; cultured melanocytes; ++ means 5-50 copies/cell
T2 construct: also called HLA-A2

Question: Does RQI[pS]QDVKL (also called AMPD2) [Adenosine monophosphate deaminase 2 phosphopeptide RQIpSQDVKL] bind?
Answer: Result: binds

Question: Does B2 bind?
Answer: Result: binds

Question: Does RLL[pS]PLSSA (also called RAVER1) [phosphopeptide RLLpSPLSSA (source protein Unknown in Table 5)] bind?
Answer: Result: binds

Question: Does RQD[pS]TPGKVFL (also called NR2C1) [Nuclear hormone receptor TR2 phosphopeptide RQDpSTPGKVFL] bind?
Answer: Result: binds

target: T2, HLA-A*0201; test: competition with iodinated [..] for purified HLA-A*0201 plus β2M, capture on W6/32 plates
Description: Peptide-MHC complexes were captured in W6/32-coated ELISA plates after 48 hours and the dose at which test peptides inhibited binding of the indicator peptide by 50% (IC₅₀) was calculated.

Question: For B3, which IC50 is on record?
Answer: The IC50 was 0.678 µg/mL.

Question: Which IC50 does the source give for B4 here?
Answer: Its IC50 is 0.327 µg/mL.
